Test system: B16F10-Red-FLuc mouse melanoma cells
Test: B16F10-Red-FLuc experimental metastasis to the lung, N/P=4 and N/P=6 versus recombinant mIL-12 (Example 9)
Assay type: in vivo, C57BL/6 mice
Description: The anti-tumor effect of nanoparticles containing PEG-mIL12 and expressing mIL-12 was compared to recombinant mIL-12 protein administered subcutaneously. The experimental design was as Example 8 but nanoparticles were prepared at N/P=4 and N/P=6 ratios. Nanoparticles were dosed as before for N/P=6, however, for the N/P=4 formulation the dose was maintained at 2 mg/kg in 10 mL/kg at day 8. For dosing of the recombinant protein, 10 μg of recombinant mIL-12 (PeproTech, Rocky Hill, N.J., USA) were reconstituted in PBS to make a 100 μg/mL stock solution. Dosing of the animals was at 4 μg/kg for the initial dose (Day 5) followed by four subsequent doses 12 μg/kg at the same intervals as the nanoparticles (Day 8, 11, 14 and 17).

B1: recombinant mIL-12: recombinant mIL-12 protein (PeproTech) administered subcutaneously (protein, UniProt P43431 23-215; P43432 23-335, looked up)
Interleukin-12 subunit alpha: RVIPVSGPARCLSQSRNLLKTTDDMVKTAREKLKHYSCTAEDIDHEDITRDQTSTLKTCLPLELHKNESCLATRETSSTTRGSCLPPQKTSLMMTLCLGSIYEDLKMYQTEFQAINAALQNHNHQQIILDKGMLVAIDELMQSLNHNGETLRQKPPVGEADPYRVKMKLCILLHAFSTRVVTINRVMGYLSSA
Interleukin-12 subunit beta: MWELEKDVYVVEVDWTPDAPGETVNLTCDTPEEDDITWTSDQRHGVIGSGKTLTITVKEFLDAGQYTCHKGGETLSHSHLLLHKKENGIWSTEILKNFKNKTFLKCEAPNYSGRFTCSWLVQRNMDLKFNIKSSSSSPDSRAVTCGMASLSAEKVTLDQRDYEKYSVSCQEDVTCPTAEETLPIELALEARQQNKYENYSTSFFIRDIIKPDPPKNLQMKPLKNSQVEVSWEYPDSWSTPHSYFSLKFFVRIQRKKEKMKETEEGCNQKGAFLVEKTSTEVQCKGGNVCVQAQDRYYNSSCSKWACVPCRVRS
Log-rank test: p≤0.01 for formulations of PEG-mIL12, p≤0.05 for recombinant mIL-12, Trehalose 22.0 days
  Median survival time compared with Trehalose control: significantly longer
Study Day 19
  tumor growth by luminescence readings compared with 9.5% Trehalose control: significant (p≤0.05) inhibition of tumor growth
Nanoparticles i.v. 2 mg/kg Days 5, 8, 11, 14, 17 (N/P=6: 1 mg/kg Day 8), recombinant mIL-12 subcutaneously 4 μg/kg Day 5 then 12 μg/kg
  Median survival time: 25.0 days
